Values of other authors as cited in PMC9842050.
Where two headings read alike, the source gives them in different places.

Legend:
GLP-1R (Homo sapiens) [1] = molecular target: GLP-1R (Homo sapiens) (UniProt P43220); experiment: radioligand competition binding
GLP-1R (Homo sapiens) [2] = molecular target: GLP-1R (Homo sapiens) (UniProt P43220); experiment: radioligand competition binding; remark: listed apart in the source
CXCR4 (Homo sapiens) [3] = molecular target: CXCR4 (Homo sapiens) (UniProt P61073)
CXCR4 (Homo sapiens) [4] = molecular target: CXCR4 (Homo sapiens) (UniProt P61073); remark: listed apart in the source

GLP-1R (Homo sapiens), sequence (P43220 24-463): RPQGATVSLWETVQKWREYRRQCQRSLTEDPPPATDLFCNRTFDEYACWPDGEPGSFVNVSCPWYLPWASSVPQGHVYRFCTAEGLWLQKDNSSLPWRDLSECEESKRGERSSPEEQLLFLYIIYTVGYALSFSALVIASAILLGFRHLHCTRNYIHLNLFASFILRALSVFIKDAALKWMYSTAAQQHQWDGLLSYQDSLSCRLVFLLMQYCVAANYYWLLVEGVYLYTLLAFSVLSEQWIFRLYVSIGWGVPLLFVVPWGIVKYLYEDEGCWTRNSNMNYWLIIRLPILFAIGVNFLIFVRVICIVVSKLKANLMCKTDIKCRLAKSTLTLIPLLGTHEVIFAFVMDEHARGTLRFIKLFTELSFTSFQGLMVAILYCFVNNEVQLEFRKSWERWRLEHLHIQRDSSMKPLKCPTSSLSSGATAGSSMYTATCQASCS
SDF-1α, sequence (P48061 24-88): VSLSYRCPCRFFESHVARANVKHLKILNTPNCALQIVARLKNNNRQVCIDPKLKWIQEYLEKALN
CXCR4 (Homo sapiens), sequence (P61073 whole entry): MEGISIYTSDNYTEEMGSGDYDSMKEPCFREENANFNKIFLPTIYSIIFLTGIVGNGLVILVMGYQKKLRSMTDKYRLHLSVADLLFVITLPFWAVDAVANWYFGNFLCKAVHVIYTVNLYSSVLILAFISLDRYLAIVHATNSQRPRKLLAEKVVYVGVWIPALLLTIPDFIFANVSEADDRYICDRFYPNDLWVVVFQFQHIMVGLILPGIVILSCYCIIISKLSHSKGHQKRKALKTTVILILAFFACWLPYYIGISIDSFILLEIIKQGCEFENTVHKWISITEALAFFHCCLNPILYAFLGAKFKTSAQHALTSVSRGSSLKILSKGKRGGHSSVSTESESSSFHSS
exendin-4, sequence (P26349 48-86): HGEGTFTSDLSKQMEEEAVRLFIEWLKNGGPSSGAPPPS

| Substance | Kd (GLP-1R (Homo sapiens) [1]) | Kd (GLP-1R (Homo sapiens) [2]) | Kd (CXCR4 (Homo sapiens) [3]) | Kd (CXCR4 (Homo sapiens) [4]) |
| --- | --- | --- | --- | --- |
| exendin-4 (from UniProt P26349) | 37.8 nM | 54.3 nM |  |  |
| SDF-1α (from UniProt P48061) |  |  | 8.4 nM | 1.4 nM |
